Among the data in the Immune Epitope Database (IEDB) are Kd values, retold here.

Common to all, as to test: IEDB peptide-MHC binding, purified MHC/competitive/radioactivity; filed as Kd, often an IC50 or EC50 that approximates it; ≥ and ≤ were set here for values at or beyond the usual limits of such assays
What all share (conditions): source organism: Plasmodium falciparum 3D7

The target of assay [1] is HLA-A*29:02.
Assay [2] concerns the target HLA-A*30:02.
In assay [3] the target is HLA-A*24:02.
The target in assay [4] is HLA-A*02:02.
The target in assay [5] is HLA-A*02:01.
Assay [6] concerns the target HLA-A*02:03.
Assay [7] has as its target HLA-A*68:02.
Assay [8] has as its target HLA-A*02:06.
Assay [9] deals with HLA-A*26:01.
The target in assay [10] is HLA-A*01:01.
Assay [11] deals with HLA-A*23:01.

Turning to RMTSLKNEL, the figures for the Kd in assay [1], in assay [2] and in assay [3] were ≥ 10 µM, 0.014 µM and ≥ 10 µM, respectively.
Regarding ATYGIIVPV, the Kd turned out to be 0.002 µM in [4]; 0.0032 µM in assay [5]; 0.0028 µM in [6]; 0.021 µM in assay [7]; 0.005 µM in [8].
As for LLNESNIFL, the Kd came out at 0.0025 µM in [4]; 0.043 µM in assay [5]; 0.024 µM in [6]; 4.48 µM in [7]; 0.143 µM in assay [8].
In the case of NQMIFVSSI, the Kd in assay [4] is 0.021 µM; in [5], 0.25 µM; in assay [6], 0.0036 µM; in assay [7] it was 0.198 µM; in [8], 0.014 µM.
As to FVSSIFISFY, the dissociation constant Kd in assay [1] was 0.022 µM; in assay [9] it was 0.011 µM; in assay [2] it was 0.084 µM; in assay [10], 0.118 µM.
Turning to NFINFIKVL, the Kd in assay [1] was ≥ 10 µM; in assay [11] it was 1.04 µM; in [2], ≥ 10 µM; in [3] it was ≥ 10 µM.
Regarding TYKKKNNHI, the figures for the Kd in assay [1], in assay [11] and in assay [3] were ≥ 10 µM, 0.081 µM and 0.03 µM, respectively.
Turning to NILIVLYYL, the Kd in [4] was 1.61 µM; in assay [5] it was ≥ 10 µM; in [6] it was 8.78 µM; in assay [7], ≥ 10 µM; in assay [8], 1.09 µM.
Take VYYNILIVL: the Kd is ≥ 10 µM in assay [1], 0.052 µM in assay [11], 1.13 µM in [2] and 0.265 µM in assay [3].
Regarding FLVFLVFSNV, the Kd in [4] turned out to be 0.212 µM; in assay [5] it was 0.269 µM; in assay [7], 5.39 µM; in [8], 0.232 µM.
On to SYKSSKRDKF, for which the Kd was ≥ 10 µM in assay [1], 0.797 µM in assay [11], 0.088 µM in [2] and 0.256 µM in [3].
On to FMNRFYITT, for which the Kd in assay [4] amounted to 0.018 µM; in assay [7], 6.54 µM; in assay [8], 0.996 µM.
VLFLQMMNV: the Kd in assay [4] worked out at 0.0018 µM; in [5] it was 0.031 µM; in assay [6], 0.0027 µM; in [7] it was 0.323 µM; in assay [8] it was 0.0095 µM.
In the case of KYEALIKLL, the Kd in assay [1] was ≥ 10 µM; in [11] it was 0.484 µM; in assay [2], ≥ 10 µM; in assay [3], 2.86 µM.
LYYLFNQHI: the Kd in [1] was ≥ 10 µM; in assay [11], 0.0014 µM; in assay [2] it was ≥ 10 µM; in assay [3], 0.033 µM.
Turning to QEEQKKYIY, the Kd in assay [1], in [9], in [2] and in assay [10] was ≥ 10 µM in each case.
With RLPVICSFLV, the Kd in assay [4] is 0.0025 µM; in assay [6], 0.033 µM; in assay [7], 9.18 µM; in assay [8], 0.019 µM.
Consider TYGIIVPVL, for which the Kd in [1] was ≥ 10 µM; in [11], 0.041 µM; in assay [2] it was 1.52 µM; in assay [3], 0.248 µM.
As to SFFMNRFYI, the Kd came to 0.2 µM in assay [1], 0.011 µM in assay [11], 1.02 µM in assay [2] and 0.172 µM in assay [3].
Turning to QNADKNFLY, the Kd worked out at 0.024 µM in [1], 0.166 µM in assay [9], 0.663 µM in [2] and 3.81 µM in assay [10].
On the same counts, the results for LIENELMNY are 3.94 µM, 0.228 µM, 0.161 µM and 0.412 µM.
With VYRHCEYIL, the Kd in assay [1] was ≥ 10 µM; in assay [11], 0.064 µM; in assay [2], 3.33 µM; in assay [3], 2.2 µM.
For YQDPQNYEL, the Kd is 0.018 µM in assay [4]; 0.079 µM in [5]; 0.441 µM in [6]; ≥ 10 µM in assay [7]; 0.052 µM in [8].
With ELEASISGKY, the Kd in assay [1] is ≥ 10 µM; in assay [9], 0.023 µM; in assay [2], 0.463 µM; in assay [10] it was 0.142 µM.
Consider KFNILSSPL, for which the Kd in [1] was ≥ 10 µM; in [11] it was 1.76 µM; in [2], 1.28 µM; in [3] it was 1.73 µM.
For the sequence LEASISGKY, the Kd in assay [1] is ≥ 10 µM; in assay [9], 3.95 µM; in assay [2] it was 0.087 µM; in assay [10], ≥ 10 µM.
Turning to RLFEESLGI, the Kd in assay [4] amounted to 0.0019 µM; in assay [6], 0.0055 µM; in assay [7] it was 0.418 µM; in assay [8] it was 0.068 µM.
Take DFFLKSKFNI: the Kd is ≥ 10 µM in [1], 0.304 µM in assay [11], 2.61 µM in assay [2] and 1.65 µM in [3].
For MFVPKYFEL, in that order: 2.56 µM, 0.011 µM, 8.56 µM and 0.266 µM.
Consider LNEQLIYTY, for which the Kd was 2.4 µM in [1], 6.21 µM in assay [9], 4.13 µM in assay [2] and ≥ 10 µM in [10].
On the same counts, the results for QAAESNERY are ≥ 10 µM, 0.142 µM, 3.01 µM and 0.353 µM.
In the case of NVDQQNDMY, the Kd in assay [1] was ≥ 10 µM; in assay [9], ≥ 10 µM; in assay [2] it was ≥ 10 µM; in assay [10], 0.047 µM.
On to VICSFLVFLV, for which the Kd in assay [4] came to 0.415 µM; in assay [6], 2.92 µM; in assay [7], 1.95 µM; in [8] it was 0.197 µM.
As for SSFFMNRFY, the Kd was found to be 0.036 µM in assay [1], 0.166 µM in assay [9], 0.0075 µM in [2] and 0.239 µM in [10].
